Data set [1] concerns the molecule itself. The data set can be described thus: non-reducing SDS-PAGE; peak gel filtration fraction of purified pBMP10 on non-reducing SDS-PAGE; Coomassie stain and anti-BMP10 immunoblot. (SEC sorts molecules by how far they enter the pores of the column.)
Data set [2] addresses T1, BMPR-II extracellular domain (ECD), human, residues 27-150 (human, UniProt Q13873-1 27-150).
T1 construct: Bone morphogenetic protein receptor type II, human, extracellular domain, residues 27-150 (NM_001204); Cloned in pET39b as DsbA-(His)6-TEV site-BMPR2 ECD; also called BMPR-II ECD; BMPR2 ECD; source: E. coli Rosetta DE3, periplasmic extract, purified (Ni-NTA, TEV cleavage, second Ni-NTA flowthrough, S75 gel filtration); not shown: DsbA, N-terminal, cleaved; His6, N-terminal, cleaved
T1 sequence (looked up): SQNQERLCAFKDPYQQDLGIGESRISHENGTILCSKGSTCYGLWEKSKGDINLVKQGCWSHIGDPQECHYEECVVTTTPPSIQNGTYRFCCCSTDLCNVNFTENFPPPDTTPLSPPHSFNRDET
Put plainly: native gel or EMSA; 10% native PAGE of purified pBMP10 complex alone or with BMPR-II ECD (molar ratio pBMP10:BMPR-II ECD 1:1, 1:2, 1:4); bands excised and immunoblotted for BMP10 GFD and prodomain. As to conditions: both partners purified. For orientation: A gel shift assay detects complexes by their altered migration in electrophoresis.

B1: BMP10 growth factor domain (GFD), recombinant human, from the in-house pBMP10 complex (ligand, UniProt O95393 317-424, looked up)
chain: NAKGNYCKRTPLYIDFKEIGWDSWIIAPPGYEAYECRGVCNYPLAEHLTPTKHAIIQALVHLKNSQKASKACCVPTKLEPISILYLDKGVVTYKFKYEGMAVSECGCR
notes: Bone morphogenetic protein 10, human; the mature growth factor domain cut from full-length proBMP10 by furin; Expressed from full-length proBMP10 cDNA, co-transfected with furin; Covalently linked (D-form) and non-covalently linked (M-form) dimers are both in the preparation; also called BMP10 GFD; mature BMP10; source: HEK EBNA cells transfected with proBMP10 and furin in pCEP4; purified from …
For the molecule B1, the binding result in data set [1] and in data set [2] was “binds” each time.

Values taken from paper PMC4742757, “The Prodomain-bound Form of Bone Morphogenetic Protein 10 Is Biologically Active on Endothelial Cells*” (The Journal of Biological Chemistry, 2015).
